One block for each substance: values may come before it.
Experiments:
Factor Va = Factor Va (UniProt P12259)
FXa^I16T (human) = FXa^I16T (human) (UniProt P00742); test: cell-based or functional assay
FXa^V17T (human) = FXa^V17T (human) (UniProt P00742); test: cell-based or functional assay
[1] = target: wild-type Factor Xa (human) (UniProt P00742); test: cell-based or functional assay
FXa^V17S (human) = FXa^V17S (human) (UniProt P00742); test: cell-based or functional assay
FXa^V17M (human) = FXa^V17M (human) (UniProt P00742); test: cell-based or functional assay
FXa^I16M (human) = FXa^I16M (human) (UniProt P00742); test: cell-based or functional assay

Chain of UniProt P12259 (P12259 29-2224): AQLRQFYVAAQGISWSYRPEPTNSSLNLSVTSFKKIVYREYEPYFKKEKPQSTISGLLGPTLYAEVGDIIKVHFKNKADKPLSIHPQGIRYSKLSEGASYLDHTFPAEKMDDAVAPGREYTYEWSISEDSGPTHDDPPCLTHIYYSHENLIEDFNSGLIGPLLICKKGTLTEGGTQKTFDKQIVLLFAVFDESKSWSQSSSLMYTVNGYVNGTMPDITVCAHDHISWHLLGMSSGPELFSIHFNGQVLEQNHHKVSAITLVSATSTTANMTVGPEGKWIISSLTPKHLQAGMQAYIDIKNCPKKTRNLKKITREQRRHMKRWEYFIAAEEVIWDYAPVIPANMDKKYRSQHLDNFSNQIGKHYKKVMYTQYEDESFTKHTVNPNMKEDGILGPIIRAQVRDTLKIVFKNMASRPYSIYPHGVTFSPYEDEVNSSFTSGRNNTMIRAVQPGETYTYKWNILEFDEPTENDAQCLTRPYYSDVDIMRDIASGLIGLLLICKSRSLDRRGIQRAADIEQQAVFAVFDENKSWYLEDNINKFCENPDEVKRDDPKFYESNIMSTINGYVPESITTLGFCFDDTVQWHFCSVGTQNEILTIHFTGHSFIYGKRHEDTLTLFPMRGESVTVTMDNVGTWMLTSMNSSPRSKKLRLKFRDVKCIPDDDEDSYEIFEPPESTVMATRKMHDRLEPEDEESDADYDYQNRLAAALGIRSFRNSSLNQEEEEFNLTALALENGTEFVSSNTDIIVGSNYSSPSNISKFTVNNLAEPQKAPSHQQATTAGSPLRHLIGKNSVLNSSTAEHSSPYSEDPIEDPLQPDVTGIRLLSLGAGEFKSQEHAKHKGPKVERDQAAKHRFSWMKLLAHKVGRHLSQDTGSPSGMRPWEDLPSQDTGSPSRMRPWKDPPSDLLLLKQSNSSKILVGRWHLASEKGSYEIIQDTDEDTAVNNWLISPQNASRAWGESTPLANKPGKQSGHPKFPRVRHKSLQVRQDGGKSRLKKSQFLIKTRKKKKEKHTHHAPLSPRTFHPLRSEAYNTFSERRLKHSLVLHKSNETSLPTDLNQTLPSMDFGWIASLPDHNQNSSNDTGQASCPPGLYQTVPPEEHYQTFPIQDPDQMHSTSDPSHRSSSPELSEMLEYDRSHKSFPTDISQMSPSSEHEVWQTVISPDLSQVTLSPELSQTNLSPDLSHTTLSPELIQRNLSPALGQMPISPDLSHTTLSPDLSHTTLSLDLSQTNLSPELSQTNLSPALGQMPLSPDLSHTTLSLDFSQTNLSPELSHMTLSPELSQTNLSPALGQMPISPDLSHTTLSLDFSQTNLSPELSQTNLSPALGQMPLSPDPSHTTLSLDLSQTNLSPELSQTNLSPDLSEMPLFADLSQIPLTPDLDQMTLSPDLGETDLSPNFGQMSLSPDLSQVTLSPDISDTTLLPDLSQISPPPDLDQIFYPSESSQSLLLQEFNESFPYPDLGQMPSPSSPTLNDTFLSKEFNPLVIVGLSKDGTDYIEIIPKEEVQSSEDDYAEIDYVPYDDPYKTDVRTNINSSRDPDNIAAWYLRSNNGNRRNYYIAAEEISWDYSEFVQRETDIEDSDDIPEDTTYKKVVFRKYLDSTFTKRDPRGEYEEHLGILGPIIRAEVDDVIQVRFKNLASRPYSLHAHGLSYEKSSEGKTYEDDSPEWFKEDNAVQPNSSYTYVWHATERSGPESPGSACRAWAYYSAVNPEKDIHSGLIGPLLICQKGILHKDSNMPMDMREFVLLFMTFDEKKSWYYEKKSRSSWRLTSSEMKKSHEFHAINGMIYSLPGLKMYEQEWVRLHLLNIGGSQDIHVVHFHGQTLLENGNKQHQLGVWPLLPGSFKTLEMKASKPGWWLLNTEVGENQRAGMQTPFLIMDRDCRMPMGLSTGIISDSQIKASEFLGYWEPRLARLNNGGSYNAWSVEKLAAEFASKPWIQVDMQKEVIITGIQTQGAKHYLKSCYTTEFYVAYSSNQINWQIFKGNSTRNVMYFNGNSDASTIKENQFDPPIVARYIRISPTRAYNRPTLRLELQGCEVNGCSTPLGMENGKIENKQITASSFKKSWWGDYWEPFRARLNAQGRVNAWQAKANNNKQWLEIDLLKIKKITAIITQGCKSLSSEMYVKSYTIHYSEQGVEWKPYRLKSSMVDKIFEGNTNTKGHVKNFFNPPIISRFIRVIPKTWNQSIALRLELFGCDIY

Substance: FXa^I16L
kinetics of prothrombin activation in the presence of FVa and anionic membranes (PCPS) (Factor Va): demonstrated faster than wild-type kinetics

Substance: FXa^I16M
kinetics of prothrombin activation in the presence of FVa and anionic membranes (PCPS) (Factor Va): displayed similar to wild-type kinetics

Substance: FXa^V17M
kinetics of prothrombin activation in the presence of FVa and anionic membranes (PCPS) (Factor Va): demonstrated faster than wild-type kinetics

Fold Difference (rate constant for inhibition by antithrombin, against wtFXa) (FXa^I16T (human)): > 100 fold | Fold Difference (rate constant for inhibition by antithrombin, against wtFXa) (FXa^V17T (human)): 70 fold | Fold Difference (rate constant for inhibition by antithrombin, against wtFXa) [1]: 1 fold | Fold Difference (rate constant for inhibition by antithrombin, against wtFXa) (FXa^V17S (human)): > 100 fold | Fold Difference (rate constant for inhibition by antithrombin, against wtFXa) (FXa^V17M (human)): 14 fold | Fold Difference (rate constant for inhibition by antithrombin, against wtFXa) (FXa^I16M (human)): 40 fold
Substance: antithrombin III (from UniProt P01008 33-464)

From patent US20170247677A1
